Test results from IntAct's records for PubMed 18278053.

B1: Integrin beta-1 (Gallus gallus (Chicken)), P07228 (parent)
chain: MAETNLTLLTWAGILCCLIWSGSAQQGGSDCIKANAKSCGECIQAGPNCGWCKKTDFLQEGEPTSARCDDLAALKSKGCPEQDIENPRGSKRVLEDREVTNRKIGAAEKLKPEAITQIQPQKLVLQLRVGEPQTFSLKFKRAEDYPIDLYYLMDLSYSMKDDLENVKSLGTALMREMEKITSDFRIGFGSFVEKTVMPYISTTPAKLRNPCTGDQNCTSPFSYKNVLSLTSEGNKFNELVGKQHISGNLDSPEGGFDAIMQVAVCGDQIGWRNVTRLLVFSTDAGFHFAGDGKLGGIVLPNDGKCHLENNMYTMSHYYDYPSIAHLVQKLSENNIQTIFAVTEEFQAVYKELKNLIPKSAVGTLSSNSSNVIQLIIDAYNSLSSEVILENSKLPKEVTISYKSYCKNGVNDTQEDGRKCSNISIGDEVRFEINVTANECPKKGQNETIKIKPLGFTEEVEIHLQFICDCLCQSEGEPNSPACHDGNGTFECGACRCNEGRIGRLCECSTDEVNSEDMDAYCRRENSTEICSNNGECICGQCVCKKRENTNEVYSGKYCECDNFNCDRSNGLICGGNGICKCRVCECFPNFTGSACDCSLDTTPCMAGNGQICNGRGTCECGTCNCTDPKFQGPTCEMCQTCLGVCAEHKDCVQCRAFEKGEKKETCSQECMHFNMTRVESRGKLPQPVHPDPLSHCKEKDVGDCWFYFTYSVNSNGEASVHVVETPECPSGPDIIPIVAGVVAGIVLIGLALLLIWKLLMIIHDRREFAKFEKEKMNAKWDTGENPIYKSAVTTVVNPKYEGK

Variants of: B1
Details: with urp2_mouse Fermt3, Q8K1B8
Sequence of urp2_mouse Fermt3, Q8K1B8 (Q8K1B8 whole entry): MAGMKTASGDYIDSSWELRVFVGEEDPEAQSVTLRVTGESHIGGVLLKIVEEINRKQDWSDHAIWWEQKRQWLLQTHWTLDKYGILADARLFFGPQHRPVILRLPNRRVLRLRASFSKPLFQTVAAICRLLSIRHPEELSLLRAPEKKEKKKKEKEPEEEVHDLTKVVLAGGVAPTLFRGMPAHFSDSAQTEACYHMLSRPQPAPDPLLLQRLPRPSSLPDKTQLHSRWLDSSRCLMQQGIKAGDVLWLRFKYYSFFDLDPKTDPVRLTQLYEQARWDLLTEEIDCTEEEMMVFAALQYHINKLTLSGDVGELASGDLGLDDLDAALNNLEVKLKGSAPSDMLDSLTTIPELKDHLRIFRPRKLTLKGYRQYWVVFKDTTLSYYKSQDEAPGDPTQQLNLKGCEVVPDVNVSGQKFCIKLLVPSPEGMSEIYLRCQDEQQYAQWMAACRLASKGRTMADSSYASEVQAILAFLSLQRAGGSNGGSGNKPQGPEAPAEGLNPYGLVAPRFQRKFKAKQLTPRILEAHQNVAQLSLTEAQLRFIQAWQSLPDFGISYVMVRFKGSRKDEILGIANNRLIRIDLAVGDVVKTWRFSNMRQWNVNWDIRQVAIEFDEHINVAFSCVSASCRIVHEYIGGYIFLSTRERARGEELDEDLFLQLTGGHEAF

Row | effect of a mutation on the interaction | Variant
1 | disrupting interaction strength | Y800A
2 | decreasing interaction strength | Y788A
3 | disrupting interaction strength | T793A;T794A
4 | decreasing interaction strength | W780A
